Measured values taken from patent US20220193132A1 (NATIONAL RESEARCH COUNCIL OF CANADA, published 2022).

What was measured:
[1] = target: T1, EGFRvIII, full length, overexpressed on glioblastoma cells (human, UniProt P00533 298-623); assay: flow cytometry dose-response on U87MG EGFRvIII cells, apparent Kd (n=3)
T1 construct: Cells overexpress full length EGFRvIII (deletion of exons 2-7 of EGFR); Cell line (U87MG or DKMG) is named under assay; also called U87MG-EGFRvIII; U87vIII
Description: Prior to analysis, cells were plated such that they were not more than 80% confluent on the day of analysis. Unless otherwise stated, all media are kept are 4° C. and all incubations are performed on wet ice. Cells were washed in PBS, harvested by the addition of cell dissociation buffer (Sigma), centrifuged and resuspended in complete medium at a cell density of 2×10⁶ cells/mL. Fifty μL/well of cells were distributed in a polypropylene v-bottom 96 well plate and serial 1/3 dilutions of purified mAbs starting at 100 nM were added and incubated for 2 hours. […] Cells were washed and re-suspended in medium containing Propidium iodide to exclude dead cells from analysis. Samples were filtered through a 60 μm nylon mesh filter plate (Millipore, Ireland) to remove cell aggregates. […]
(§1) Specific detection of antibody binding was calculated as the mean fluorescent intensity of binding to each primary antibody after background level subtraction of the mean fluorescent intensity of binding of mouse IgG control. The data were analyzed with GraphPad Prism v 6.0 software using one-site specific binding with Hill slope non-linear regression curve fit model to determine Bmax (maximum specific binding) and Kdₐₚₚ (concentration needed to achieve a half-maximum binding at equilibrium) for each mAb tested.

[2] = target: T1, EGFRvIII, full length, overexpressed on …; assay: flow cytometry dose-response on DKMG EGFRvIII cells (n=1)
Description: (§2) Prior to analysis, cells were plated such that they were not more than 80% confluent on the day of analysis. Unless otherwise stated, all media are kept are 4° C. and all incubations are performed on wet ice. Cells were washed in PBS, harvested by the addition of cell dissociation buffer (Sigma), centrifuged and resuspended in complete medium at a cell density of 2×10⁶ cells/mL. Fifty μL/well of cells were distributed in a polypropylene v-bottom 96 well plate and serial 1/3 dilutions of purified mAbs starting at 100 nM were added and incubated for 2 hours. […] Cells were washed and re-suspended in medium containing Propidium iodide to exclude dead cells from analysis. Samples were filtered through a 60 μm nylon mesh filter plate (Millipore, Ireland) to remove cell aggregates. Flow cytometry analyses were performed on 2,000 viable single-cells events gated on forward scattering, side scattering parameters and propidium iodide dye exclusion using a BD-LSRFortessa flow cytometer (Becton-Dickinson Biosciences, CA, USA) and a standard filter set using BD FACSDiva™ acquisition software, according to manufacturer's instructions.
(§3) These cells were grown in RPMI and 10% fetal bovine serum using standard culturing conditions.

[3] = target: T1, EGFRvIII, full length, overexpressed on …; assay: flow cytometry dose-response on DKMG EGFRvIII cells, apparent Kd (n=1)
Description: as §2, §3

[4] = target: T2, wild type human EGFR, full length, overexpressed on U87MG cells (human, UniProt P00533 25-1210); assay: flow cytometry dose-response, U87MG EGFR wt cells
T2 construct: also called U87MG-EGFR wt; U87 WT
Description: as §2, §1

[5] = target: T3, recombinant human wild type EGFR protein (extracellular domain), native (human, UniProt P00533 25-645); assay: ELISA on recombinant antigen
T3 construct: also called wt EGFR; EGFR WT
Description: (§4) Pre- and post-immune sera titers of animals were assessed by ELISA on recombinant EGFRvIII protein. Unless otherwise stated, all incubations were performed at room temperature. […] Microplates were washed three times in PBS and blocked for 30 min with PBS containing 1% bovine serum albumin (BSA, Sigma Cat #A7030). Blocking buffer was removed and 25 μl of serial dilutions of sera samples were added. […] After a 1-h incubation, microplates were washed 4 times and 25 μl of p-nitrophenyl phosphate (pNPP) substrate (Sigma-Aldrich Canada Co., Oakville, ON) at 1 mg/ml in carbonate buffer at pH 9.6 was added and further incubated for 30 min.
(§5) Antigens at 1-2 mg/ml were incubated at 95° C. for 5 min in PBS containing DTT at a final concentration of 40 mM. They were then incubated on ice for 5 min and diluted at their final coating concentration for ELISA purpose.
(§6) ELISA was performed as described above (serum titer determination) using 25 μl of mAb supernatant (Exp 1) or purified mAb at 1 μg/ml (Exp 2).

[6] = target: T4, recombinant human wild type EGFR protein (extracellular domain), denatured (human, UniProt P00533 25-645); assay: ELISA on recombinant antigen
T4 construct: Same protein as m23 after 95 C for 5 min in PBS with 40 mM DTT (denatured, reduced); also called wt EGFR Denatured
Description: as §4, §5, §6

[7] = target: T2, wild type human EGFR, full length, …; assay: flow cytometry dose-response, U87MG-EGFRwt cells
Description: as §2, §1

[8] = target: T1, EGFRvIII, full length, overexpressed on …; assay: flow cytometry dose-response on U87MG-EGFRvIII cells, apparent Kd
Description: as §2, §1

[9] = target: T3, recombinant human wild type EGFR …; assay: ELISA Exp 2, purified mAb 1 ug/ml;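 further: ELISA of purified mAb binding to plate-coated antigen, native or heat/DTT-denatured, with pNPP substrate developed for 30 min and incubations at room temperature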
[10] = target: T5, recombinant human EGFRvIII protein (extracellular domain), native (human, UniProt P00533 298-623); assay: ELISA Exp 2, purified mAb 1 ug/ml;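 further: ELISA of purified mAb binding to plate-coated antigen, native or heat/DTT-denatured, with pNPP substrate developed for 30 min and incubations at room temperature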
T5 construct: also called hEGFRvIII

[11] = target: T6, recombinant human EGFRvIII protein (extracellular domain), denatured (human, UniProt P00533 298-623); assay: ELISA Exp 2, purified mAb 1 ug/ml;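 further: ELISA of purified mAb binding to plate-coated antigen, native or heat/DTT-denatured, with pNPP substrate developed for 30 min and incubations at room temperature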
T6 construct: Same protein as m21 after 95 C for 5 min in PBS with 40 mM DTT (denatured, reduced); also called EGFRvIII Denatured

[12] = target: T4, recombinant human wild type EGFR …; assay: ELISA Exp 2, purified mAb 1 ug/ml;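 further: ELISA of purified mAb binding to plate-coated antigen, native or heat/DTT-denatured, with pNPP substrate developed for 30 min and incubations at room temperature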
[13] = target: T3, recombinant human wild type EGFR …; assay: ELISA Exp 1, mAb supernatant
[14] = target: T5, recombinant human EGFRvIII protein …; assay: ELISA Exp 1, mAb supernatant
[15] = target: T6, recombinant human EGFRvIII protein …; assay: ELISA Exp 1, mAb supernatant
[16] = target: T4, recombinant human wild type EGFR …; assay: ELISA Exp 1, mAb supernatant

| Binder | Kd [1] [nM] | Bmax [2] | Kd [3] [nM] | binding result [4] | binding result [5] | binding result [6] | binding result [7] | Kd [8] [nM] | ELISA absorbance 405 nm [9] [A405] | ELISA absorbance 405 nm [10] [A405] | ELISA absorbance 405 nm [11] [A405] | ELISA absorbance 405 nm [12] [A405] | ELISA absorbance 405 nm [13] [A405] | ELISA absorbance 405 nm [14] [A405] | ELISA absorbance 405 nm [15] [A405] | ELISA absorbance 405 nm [16] [A405] |
| --- | --- | --- | --- | --- | --- | --- | --- | --- | --- | --- | --- | --- | --- | --- | --- | --- |
| hFc-4E11 (antibody, human IgG1, kappa, V domains shown, Chimeric antibody, mouse variable regions on human IgG1 / human kappa, produced in CHO cells; also called chimeric 4E11) VH: DVQLQESGPGLVKPSQSLSLTCTVTGYSITSDYAWNWIRQFPGNKLEWMGYIGYNGRTSYNPSLKSRISITRDTSKNQFFLQLNYVTTEDTATFYCARLGRGFAYWGQGTLVTVSA VL: DILMTQSPSSMSVSLGDTVSITCHASQGINSNIGWLLQKPGKSFKGLIYHGTNLEDGVPSRFSGSGSGTDYSLTISSLESEDFADYYCVQYAQFPYTFGGGTKLEIKR | 2.6 | 12100 | 1.43 | no binding | – | – | – | – | – | – | – | – | – | – | – | – |
| 13.1.2 mIgG1 (antibody, V domains shown) VH: QVQLVESGGGVVQPGRSLRLSCAASGFTFSSYGMHWVRQAPGKGLEWVAVIWYDGSNKYYVDSVKGRFTISRDNSKNTLYLQMNSLRAEDTAVYYCARDGWQQLAPFDYWGQGTLVTVSS VL: not shown | – | – | – | – | no binding | no binding | no binding (tested: 100 nM highest concentration) | 4.3 | 0.003 | 1.67 | 1.71 | 0.005 | 0.011 | 1.1 | 1.91 | 0.003 |
| 13.1.2 mIgG2a (antibody, V domains shown) VH: QVQLVESGGGVVQPGRSLRLSCAASGFTFSSYGMHWVRQAPGKGLEWVAVIWYDGSNKYYVDSVKGRFTISRDNSKNTLYLQMNSLRAEDTAVYYCARDGWQQLAPFDYWGQGTLVTVSS VL: not shown | – | – | – | – | no binding | no binding | no binding (tested: 100 nM highest concentration) | 4.2 | 0.003 | 1.49 | 1.5 | 0.002 | 0.009 | 1.29 | 2.09 | 0.007 |
